Measurements reported in article PMC5709738 (The EMBO Journal, 2017).

T1: fluorescently labelled full-length Ctf19-Mcm21 (Kluyveromyces lactis, UniProt Q6CRN7+Q6CVQ9)
T1 construct: we purified full-length K. lactis; NT-647-NHS red fluorescent dye on lysine side chains (chemical label); made in house; host or cells: Escherichia coli BL21 Rosetta 2(DE3)pLysS
T1 sequence (Q6CRN7 1-270): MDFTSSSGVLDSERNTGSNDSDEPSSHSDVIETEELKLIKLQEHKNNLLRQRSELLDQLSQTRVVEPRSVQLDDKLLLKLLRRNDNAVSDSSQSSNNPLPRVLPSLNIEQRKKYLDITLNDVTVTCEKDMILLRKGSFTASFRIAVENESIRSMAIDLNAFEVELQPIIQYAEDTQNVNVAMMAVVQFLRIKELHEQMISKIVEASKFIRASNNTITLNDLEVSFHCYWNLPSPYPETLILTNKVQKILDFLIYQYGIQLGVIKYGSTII
T1 sequence (Q6CVQ9 1-293): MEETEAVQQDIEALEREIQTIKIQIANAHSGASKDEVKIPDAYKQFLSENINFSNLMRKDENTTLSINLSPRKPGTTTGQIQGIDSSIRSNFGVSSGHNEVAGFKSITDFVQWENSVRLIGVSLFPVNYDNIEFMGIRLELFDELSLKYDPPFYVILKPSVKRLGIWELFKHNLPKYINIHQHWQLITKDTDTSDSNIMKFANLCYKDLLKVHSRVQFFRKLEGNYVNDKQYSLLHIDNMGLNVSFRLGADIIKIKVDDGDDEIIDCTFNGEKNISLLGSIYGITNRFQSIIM

T2: full-length Ctf19-Mcm21 (K. lactis) (Kluyveromyces lactis, UniProt Q6CRN7 1-270; Q6CVQ9 1-293)
T2 construct: Ctf19 of Kluyveromyces lactis; Mcm21 of Kluyveromyces lactis; for microscale thermophoresis it was labelled on lysine side chains with the red dye NT-647-NHS; also stands for the Ctf19-Mcm21 subassembly of COMA in nanoflow mass spectra; source: E. coli BL21 Rosetta 2(DE3)pLysS, co-expressed, purified
T2 sequence (looked up) 1: T1 sequence (Q6CRN7 1-270)
T2 sequence (looked up) 2: T1 sequence (Q6CVQ9 1-293)

T3: full-length Ctf19-Mcm21 (K. lactis) (Kluyveromyces lactis, UniProt Q6CRN7 1-270; Q6CVQ9 1-293)
T3 chain 1: T1 sequence (Q6CRN7 1-270)
T3 chain 2: T1 sequence (Q6CVQ9 1-293)

T4: Nkp1 (K. lactis) (Kluyveromyces lactis, UniProt Q6CPR4 1-210)
T4 construct: Nkp1 of Kluyveromyces lactis; also called non-essential kinetochore protein 1; HisNkp1; source: E. coli BL21 Rosetta 2(DE3)pLysS, purified
T4 sequence (looked up): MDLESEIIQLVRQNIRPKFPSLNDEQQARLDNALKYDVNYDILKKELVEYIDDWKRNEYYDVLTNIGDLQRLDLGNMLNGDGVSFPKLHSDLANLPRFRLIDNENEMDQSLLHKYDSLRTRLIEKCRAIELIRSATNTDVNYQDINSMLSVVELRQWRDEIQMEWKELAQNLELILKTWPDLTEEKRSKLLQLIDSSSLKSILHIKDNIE

T5: COMA (K. lactis, full length: Ame1, Ctf19, Mcm21, Okp1) (Kluyveromyces lactis, UniProt Q6CUE5 1-292; Q6CRN7 1-270; Q6CVQ9 1-293; Q6CJY0 1-383)
T5 construct: Ame1 of Kluyveromyces lactis; Ctf19 of Kluyveromyces lactis; Mcm21 of Kluyveromyces lactis; Okp1 of Kluyveromyces lactis; copies: + + +
T5 sequence (looked up) 1: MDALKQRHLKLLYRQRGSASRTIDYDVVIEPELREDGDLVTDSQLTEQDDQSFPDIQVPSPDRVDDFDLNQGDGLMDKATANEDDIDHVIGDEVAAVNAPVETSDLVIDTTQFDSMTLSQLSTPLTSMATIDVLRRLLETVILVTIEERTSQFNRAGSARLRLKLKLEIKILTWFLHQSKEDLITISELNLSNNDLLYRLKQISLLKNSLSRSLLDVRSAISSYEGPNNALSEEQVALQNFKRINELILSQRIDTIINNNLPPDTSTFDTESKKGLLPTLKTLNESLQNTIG
T5 sequence (looked up) 2: T1 sequence (Q6CRN7 1-270)
T5 sequence (looked up) 3: T1 sequence (Q6CVQ9 1-293)
T5 sequence (looked up) 4: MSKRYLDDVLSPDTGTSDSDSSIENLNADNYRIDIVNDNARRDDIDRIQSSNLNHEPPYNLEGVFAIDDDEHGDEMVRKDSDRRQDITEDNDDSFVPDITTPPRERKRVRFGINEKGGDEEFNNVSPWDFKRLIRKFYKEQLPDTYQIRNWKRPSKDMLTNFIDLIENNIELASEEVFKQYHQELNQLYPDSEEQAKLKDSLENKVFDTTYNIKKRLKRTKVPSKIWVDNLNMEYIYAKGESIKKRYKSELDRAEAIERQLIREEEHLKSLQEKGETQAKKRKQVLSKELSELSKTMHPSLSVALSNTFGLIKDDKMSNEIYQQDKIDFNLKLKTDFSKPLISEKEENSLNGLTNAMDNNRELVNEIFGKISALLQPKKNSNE

T6: Ctf19_D-RWD-Mcm21_D-RWD-Okp1_229-383 (K. lactis) (Kluyveromyces lactis, UniProt Q6CRN7 107-270; Q6CVQ9 108-293; Q6CJY0 229-383)
T6 construct: Ctf19 of Kluyveromyces lactis, residues 107-270; Mcm21 of Kluyveromyces lactis, residues 108-293; also called Ctf19-Mcm21-Okp1 variant that includes Okp1 segment 3; CMO; source: E. coli BL21 Rosetta 2(DE3)pLysS, co-expressed, purified; copies: + +
T6 sequence (looked up) 1: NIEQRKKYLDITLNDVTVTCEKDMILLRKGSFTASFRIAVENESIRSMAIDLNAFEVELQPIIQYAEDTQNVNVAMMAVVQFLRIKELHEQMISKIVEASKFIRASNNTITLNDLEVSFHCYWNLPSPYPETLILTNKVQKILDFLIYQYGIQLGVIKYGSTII
T6 sequence (looked up) 2: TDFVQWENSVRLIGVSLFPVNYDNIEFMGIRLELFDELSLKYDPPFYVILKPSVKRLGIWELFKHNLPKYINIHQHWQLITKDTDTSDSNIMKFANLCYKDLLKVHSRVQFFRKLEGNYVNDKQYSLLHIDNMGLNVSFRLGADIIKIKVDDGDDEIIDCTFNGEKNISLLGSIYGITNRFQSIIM
T6 sequence (looked up) 3: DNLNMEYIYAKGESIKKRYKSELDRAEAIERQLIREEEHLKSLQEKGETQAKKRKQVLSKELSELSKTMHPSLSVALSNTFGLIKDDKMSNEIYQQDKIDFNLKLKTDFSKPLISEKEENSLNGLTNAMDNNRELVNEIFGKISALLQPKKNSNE

B1: Okp1-derived synthetic peptide with the Ctf19-Mcm21 binding motif (Okp1 residues 318-337) (peptide, UniProt Q6CJY0 318-337, looked up)
peptide: SNEIYQQDKIDFNLKLKTDF
notes: also called Okp1-derived peptide; source: synthetic peptide (Protein Chemistry core facility, IMP, Vienna)
B2: Nkp2 (K. lactis) (natural protein, Kluyveromyces lactis, UniProt Q6CSR8 1-151, looked up)
chain: MLHEVLYKHLDGILVSRLYTEDQFVDLFSRTIPESNTVIASQLYKSYEENDQRIIEKIDKLIDNKLSLIRVELEREQIEDSISLEEVNKLLHSIDDMLQQHLNQLNIELDNKNTKLLKYAMELSDIEAIDTSMYDNVAKLITDMETNQPSS
notes: Nkp2 of Kluyveromyces lactis; also called non-essential kinetochore protein 2; source: E. coli BL21 Rosetta 2(DE3)pLysS, purified
B3: Nkp1-Nkp2 heterodimer (K. lactis) (complex, Kluyveromyces lactis)
chain 1: T4 sequence (looked up)
chain 2: B2 chain
notes: Nkp1 of Kluyveromyces lactis; Nkp2 of Kluyveromyces lactis; also called NN; source: E. coli BL21 Rosetta 2(DE3)pLysS, purified
B4: Okp1_229-383 (K. lactis) (domain or fragment, Kluyveromyces lactis, UniProt Q6CJY0 229-383, looked up)
chain: T6 sequence (looked up) 3
notes: also called Okp1 variant with segments 1, 2 and 3; source: E. coli BL21 Rosetta 2(DE3)pLysS, co-expressed with Ctf19_D-RWD and Mcm21_D-RWD, purified
B5: Okp1_295-383 (K. lactis) (domain or fragment, Kluyveromyces lactis, UniProt Q6CJY0 295-383, looked up)
chain: KTMHPSLSVALSNTFGLIKDDKMSNEIYQQDKIDFNLKLKTDFSKPLISEKEENSLNGLTNAMDNNRELVNEIFGKISALLQPKKNSNE
notes: source: E. coli BL21 Rosetta 2(DE3)pLysS, co-expressed with Ctf19 and Mcm21 versions, purified
B6: Ame1-Okp1 (K. lactis, full length) (complex, Kluyveromyces lactis)
chain 1: T5 sequence (looked up) 1
chain 2: T5 sequence (looked up) 4
notes: Ame1 of Kluyveromyces lactis; Okp1 of Kluyveromyces lactis; stands as the Ame1-Okp1 part of COMA; also called Okp1-Ame1; source: E. coli BL21 Rosetta 2(DE3)pLysS, co-expressed with Ctf19 and Mcm21 versions

Columns and labels:
[1] = dynamic light scattering; type: physicochemical; settings: DLS at 15 °C, ~21 µM (assuming COMA dimer) or similar concentrations
[2] = target: T1, fluorescently labelled full-length Ctf19-Mcm21; experiment: microscale thermophoresis (MST) of Okp1-derived peptides with full-length Ctf19-Mcm21; type: binding, K. lactis; settings: NT.115 Monolith, 22–25 °C, ~27 nM NT-647-labelled Ctf19-Mcm21, ITC/MST buffer pH 7.5, thermophoresis + T jump, mean and 68% confidence interval, three independent experiments
Experimental: For our MST measurements (Wienken et al, 2010), we labelled purified Ctf19‐Mcm21 with a red fluorescent dye (NT‐647‐NHS), which covalently modifies lysine side chains, in company‐provided “labelling buffer” at 22–25°C, according to the manufacturer's instructions (Nanotemper Technologies), with a 1:4 molar ratio of Ctf19‐Mcm21 and dye. We transferred fluorescently labelled Ctf19‐Mcm21 and Okp1‐derived peptide, or variants of Okp1‐derived peptide (Fig 6G), to ITC/MST buffer. We prepared dilution series of peptides, and combined with a uniform volume of Ctf19‐Mcm21 in PCR tubes, before transferring to NT.115 MST premium‐coated glass capillaries (Nanotemper Technologies). For all our measurements, the total Ctf19‐Mcm21 concentration in the capillaries was ~27 nM. We measured MST data on an NT.115 Monolith BLUE/RED instrument (Nanotemper Technologies) at 22–25°C. Samples were heated with an infrared laser (λ: 1,474 nm ± 15 nm) set to 20% MST power (30 s on; 5 s off), and fluorophores excited with a laser (excitation λ: 625 nm; emission λ: 680 nm) set to 60% LED power. For all our MST measurements, fluorescence intensity counts were 350–500. We derived our binding data from the “thermophoresis + T jump” fluorescence signal. For each unique peptide sample, we measured data from three separately prepared dilution series. […]

[3] = target: T2, full-length Ctf19-Mcm21 (K. lactis); experiment: MST; Ctf19-Mcm21 labelled with NT-647-NHS on lysines, ~27 nM; dilution series of peptide; 22-25°C; ITC/MST buffer; three dilution series; settings: both partners purified
[4] = target: T2, full-length Ctf19-Mcm21 (K. lactis); experiment: ITC; peptide at 120 uM injected into 13 uM Ctf19-Mcm21 in the cell, 25°C, ITC/MST buffer; single set of sites fit; three independent measurements; settings: both partners purified
[5] = target: T3, full-length Ctf19-Mcm21 (K. lactis); experiment: ITC
[6] = target: T4, Nkp1 (K. lactis); experiment: HDX-MS; purified assemblies in D2O buffer, quenched at pH ~2.5, pepsin column; exchange patterns compared between assemblies; settings: both partners purified
[7] = target: T5, COMA (K. lactis, full length: Ame1, …); experiment: native MS; nanoflow spectra and tandem mode with collision-induced dissociation in the gas phase (argon); subassemblies stripped of subunits; settings: both partners purified
[8] = target: B6; experiment: as above; settings: both partners purified
[9] = target: T6, Ctf19_D-RWD-Mcm21_D-RWD-Okp1_229-383 …; experiment: SEC; analytical SEC of purified K. lactis samples alone and combined, Superdex 200 10/300, 4°C; fractions on SDS-PAGE; settings: both partners purified
[10] = target: T5, COMA (K. lactis, full length: Ame1, …); experiment: SEC; reconstituted K. lactis COMA-Nkp1-Nkp2; peak fractions on Coomassie-stained SDS-PAGE
[11] = target: B3; experiment: SEC; analytical SEC of purified K. lactis samples alone and combined, Superdex 200 10/300, 4°C; fractions on SDS-PAGE; settings: both partners purified
[12] = target: B3; experiment: SEC; Superdex 200 HiLoad 10/600 prep grade column (Appendix Fig S7B); settings: both partners purified
[13] = target: the molecule itself; experiment: native MS; nanoflow spectra and tandem mode with collision-induced dissociation in the gas phase (argon); subassemblies stripped of subunits

With “COMA-Nkp1-Nkp2: reconstituted COMA bound with Nkp1-Nkp2” as the molecule, how does the “hydrodynamic radius (Rh)” value [1] read?
The value was 13.7 nm.

For “N330A-K332P: Okp1 peptide variant differing in two residue positions (SNEIYQQDKIDFALPLKTDF)”, which “dissociation constant (Kd)” value [2] is on record?
The value was “no detectable binding”.

With B1 as the molecule, how does the Kd [3] read?
The Kd was roughly 80 nM.

And the Kd [4]?
The Kd was roughly 40 nM.

And the Kd [5]?
The Kd was 43 nM.

Which results are given for B2?
binding result [6]: binds; binding result [7]: binds; binding result [8]: binds

What does the source list for B3?
binding result [9]: binds; binding result [10]: binds

Does B4 bind [11]?
Result: binds

Does B5 bind [12]?
Result: binds

Does B6 bind [13]?
Result: binds
